Consider four substances from paper PMC11109483.

This test deals with biotinylated HIP1 (22-309) (UniProt O00291). Nature of the test: SPR; Biacore T200, 25°C; biotinylated HIP1(22-309) immobilised on Sensor Chip NA (900 RU); Ub chains as analytes 60 nM to 250 uM, multicycle; 50 mM Hepes pH 7.5, 300 mM NaCl, 0.5 mM TCEP, 0.05% Tween-20, 1% BSA; steady-state affinity model.
Chain of UniProt O00291 (O00291 22-309): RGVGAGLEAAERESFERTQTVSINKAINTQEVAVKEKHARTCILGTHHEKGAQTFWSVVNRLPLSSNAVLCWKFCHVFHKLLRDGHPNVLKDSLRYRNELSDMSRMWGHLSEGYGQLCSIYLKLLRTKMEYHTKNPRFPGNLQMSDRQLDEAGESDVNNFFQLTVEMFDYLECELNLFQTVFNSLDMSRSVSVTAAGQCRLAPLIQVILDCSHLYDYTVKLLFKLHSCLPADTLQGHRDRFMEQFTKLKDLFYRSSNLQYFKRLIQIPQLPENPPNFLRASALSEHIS
By Kd is commonly meant a measure of binding affinity in units of concentration. A higher Kd goes with lower affinity. Turning to “K48-linked Ub2 (from UniProt P0CG48 1-76; P0CG48 1-76)”, the Kd amounted to 137 µM.

In the case of “K63-linked Ub2 (from UniProt P0CG48 1-76; P0CG48 1-76)”, the Kd came to 1.89 µM. With “K48-linked Ub3 (from UniProt P0CG48 1-76; P0CG48 1-76)” the figure was 66.2 µM; with “K63-linked Ub3 (from UniProt P0CG48 1-76; P0CG48 1-76)”, 1.55 µM.
